US5843460

Biological target: H. pylori urease (UreA and UreB subunits) expressed in E. coli from the urease gene cluster of pILL763 or pILL753 (Helicobacter pylori)

## H. pylori HspA heat shock protein (GroES-like)
  urease activity (Berthelot reaction) of E. coli co-expressing the urease gene cluster and HspA plus HspB: 3 fold

## H. pylori HspB heat shock protein (GroEL-like)
  urease activity (Berthelot reaction) of E. coli co-expressing the urease gene cluster and HspA plus HspB: 3 fold
